Assay results published in patent publication US20170204382A1.
Read-outs that look alike come from different tables or passages of the source.

T1: GDF11 (UniProt O95390)
T1 sequence (looked up): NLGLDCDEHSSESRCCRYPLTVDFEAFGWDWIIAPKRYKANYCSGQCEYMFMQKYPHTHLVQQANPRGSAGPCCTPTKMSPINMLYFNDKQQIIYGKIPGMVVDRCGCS

T2: Activin A (UniProt P08476)
T2 sequence (looked up): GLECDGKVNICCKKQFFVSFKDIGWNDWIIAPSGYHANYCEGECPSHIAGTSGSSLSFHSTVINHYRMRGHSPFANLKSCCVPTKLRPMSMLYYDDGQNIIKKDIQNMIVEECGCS

B1: ActRIIB(20-132)-hFc (Fc fusion, not shown: a dimerising Fc or GST)
chain: GRGEAETRECIYYNANWELERTNQSGLERCEGEQDKRLHCYASWRNSSGTIELVKKGCWLDDFNCYDRQECVATEENPQVYFCCCEGNFCNERFTHLPEAGGPEVTYEPPPTA
B2: ActRIIB(23-131)-hFc (Fc fusion, not shown: a dimerising Fc or GST)
chain: EAETRECIYYNANWELERTNQSGLERCEGEQDKRLHCYASWRNSSGTIELVKKGCWLDDFNCYDRQECVATEENPQVYFCCCEGNFCNERFTHLPEAGGPEVTYEPPPT
B3: ActRIIB(20-128)-hFc (Fc fusion, not shown: a dimerising Fc or GST)
chain: GRGEAETRECIYYNANWELERTNQSGLERCEGEQDKRLHCYASWRNSSGTIELVKKGCWLDDFNCYDRQECVATEENPQVYFCCCEGNFCNERFTHLPEAGGPEVTYEP
B4: ActRIIB(20-131)-hFc (Fc fusion, not shown: a dimerising Fc or GST)
chain: GRGEAETRECIYYNANWELERTNQSGLERCEGEQDKRLHCYASWRNSSGTIELVKKGCWLDDFNCYDRQECVATEENPQVYFCCCEGNFCNERFTHLPEAGGPEVTYEPPPT
B5: ActRIIB(24-131)-hFc (Fc fusion, not shown: a dimerising Fc or GST)
chain: AETRECIYYNANWELERTNQSGLERCEGEQDKRLHCYASWRNSSGTIELVKKGCWLDDFNCYDRQECVATEENPQVYFCCCEGNFCNERFTHLPEAGGPEVTYEPPPT
B6: ActRIIB(21-131)-hFc (Fc fusion, not shown: a dimerising Fc or GST)
chain: RGEAETRECIYYNANWELERTNQSGLERCEGEQDKRLHCYASWRNSSGTIELVKKGCWLDDFNCYDRQECVATEENPQVYFCCCEGNFCNERFTHLPEAGGPEVTYEPPPT
B7: ActRIIB(22-131)-hFc (Fc fusion, not shown: a dimerising Fc or GST)
chain: GEAETRECIYYNANWELERTNQSGLERCEGEQDKRLHCYASWRNSSGTIELVKKGCWLDDFNCYDRQECVATEENPQVYFCCCEGNFCNERFTHLPEAGGPEVTYEPPPT

Key:
Assay in all cases: cell-based or functional assay
GDF11 [1] = target: T1, GDF11
Activin A [2] = target: T2, Activin A
GDF11 [3] = target: T1, GDF11; remark: listed apart in the source
Activin A [4] = target: T2, Activin A; remark: listed apart in the source

| Binder | IC50 (ng/mL), conditioned media (GDF11 [1]) [ng/mL] | IC50 (ng/mL), conditioned media (Activin A [2]) [ng/mL] | IC50 (ng/mL), conditioned media (GDF11 [3]) [ng/mL] | IC50 (ng/mL), conditioned media (Activin A [4]) [ng/mL] |
| --- | --- | --- | --- | --- |
| B1 | 87 | 32 |  |  |
| B2 |  |  | 60 | 43 |
| B3 | 130 | 158 |  |  |
| B4 | 120 | 44 | 183 | 201 |
| B5 |  |  | 69 | 105 |
| B6 |  |  | 121 | 325 |
| B7 |  |  | 71 | 100 |
